Data published in patent publication US20250297020A1 (ADALTA, published 2025).
Where “and” joins values, the source holds several entries; their conditions need not be identical. Identical values can stand only once.

Key:
[1] = target: T1, human RANK-L (Receptor Activator of Nuclear factor Kappa B Ligand), recombinant (human, UniProt O14788 140-317, limits assumed); experiment: cell-based or functional assay
T1 sequence (looked up): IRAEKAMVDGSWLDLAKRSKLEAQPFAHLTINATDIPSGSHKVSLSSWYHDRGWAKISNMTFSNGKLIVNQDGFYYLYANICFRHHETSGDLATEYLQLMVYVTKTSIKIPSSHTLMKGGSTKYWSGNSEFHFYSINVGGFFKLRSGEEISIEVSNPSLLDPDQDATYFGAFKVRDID

[2] = target: T1, human RANK-L (Receptor Activator of …); experiment: SPR (Biacore), human RANK-L immobilised on the chip, ADR03 injected
Method: (§1) Measurement of the kinetics of ADR03 binding to human RANK-L was carried out by immobilising human RANKL onto a research grade CMS sensor chip using standard amine coupling. Each of three surfaces is first activated for seven minutes using a 1:1 mixture of […] N-hydroxysuccinimide (NHS) and […] 1-ethyl-3-(3-dimethylaminopropyl)-carbodimide (EDC). Then, the RANK-L sample is diluted 1- to 50-fold in 10 mM sodium acetate, pH 4.0, and exposed to the activated chip surface for different lengths of time (ten seconds to two minutes) to create three different density surfaces of RANK-L. Each surface is then blocked with a seven-minute injection of 1 M ethanolamine, pH 8.2. RANK-L is diluted 100-fold and injected for different amounts of time to be captured at three different surface densities (60 RU, 45 RU, 12 RU; Response Unit (RU) is termed by Biacore and relates to target molecule per surface area) onto a streptavidin-containing sensor chip. The experiments can be performed on a Biacore® 2000 or T100 optical biosensor. ADR03 is supplied at approximately 100 μg/mL and tested in a 3-fold dilution series in Sample Running Buffer over the three RANK-L surfaces. Each of ADR03 concentrations (five, 3-fold dilutions of RANK-L-coupled sensors) is tested three times to assess reproducibility of the assay. Each test is injected at a flow rate of 100 μL/minute for 60 seconds, followed by a three-minute dissociation phase. Bound ADR03 can then be removed using a five-second pulse with sensor regeneration solution. All data is usually collected at a temperature-controlled 20° c. The kinetic responses for the ADR03 injections can be analyzed using the non-linear least squares analysis program CLAMP (Myszka, D. G. and Morton, T. A. (1998) Trends Biochem. Sci., 23: 149-150). Calculations of multivalent interactions can be determined using a model to fit the avidity of the bivalent interaction of ADR03 with RANK-L (Drake et al. (2004) Anal. Biochem., 328: 35-43; and Muller et al., (1998) Anal. Biochem. 261: 149-158).

[3] = target: T1, human RANK-L (Receptor Activator of …); experiment: SPR (Biacore) sensorgrams with fitted curves; panel headed "pAb+RANKL"; value from the column "KD" of the table drawn in the panel
Method: as §1, with “The experiments can be performed on a Biacore® 2000 or T100 optical biosensor. ADR03 is supplied at approximately 100 μg/mL and tested in a 3-fold dilution series in Sample Running Buffer over the three RANK-L surfaces. Each of ADR03 concentrations (five, 3-fold dilutions of RANK-L-coupled sensors) is tested three times to assess reproducibility of the assay. Each test is injected at a flow rate of 100 μL/minute for 60 seconds, followed by a three-minute dissociation phase. Bound ADR03 can then be removed using a five-second pulse with sensor regeneration solution. All data is usually collected at a temperature-controlled 20° c.” left out

B1: ADR03 i-body (RANK-L binding i-body on the NCAM domain 1 scaffold) (designed binder)
chain: LQVDIVPSQGEISVGESKFFLCQVAGAHTVESISWFSPNGEKLTPNQQRISVVWNDDSSSTLTIYNANIDDAGIYKCVVVASARRGFGWVYPHEATVNVKIFQ
notes: I-bodies were expressed in E. coli with FLAG or penta-His tags; also called ADR3; i-body ADR03
[1]
  IC50 of inhibition of hRANK-L-induced production of TRAP positive multinucleated cells (RAW264.7): 100 ng/mL and 3 nM
[2]
  Kd: 13.2 nM
  koff: 0.00029 s⁻¹
  kon: ~23000 M⁻¹ s⁻¹
[3]
  Kd: 13.2 nM
